Source: paper PMC10272179, “Structural insight into the human SID1 transmembrane family member 2 reveals its lipid hydrolytic activity” (Nature Communications, 2023)

Experiments:
[1] = substrate: CCCCCCCCCCCCC/C=C/[C@@H](O)[C@H](CO)NC(=O)CCCCCCCCCCCCCCCCC; assay: LC-MS quantification of sphingosine, Michaelis-Menten fit; assay type: biochemical, Homo sapiens; conditions: 0.3 μM enzyme, 25 mM Tris pH 8.0, 150 mM NaCl, 0.02% DDM, 0.002% CHS micelles, room temperature, 30 min
[2] = target: the molecule itself; assay: cryo-EM structure; purified SIDT2 in GDN micelles; three samples: pH 7.4 (HEPES, 150 mM NaCl), pH 5.5 (MES) and pH 5.5 plus miRNA2911 (RNA:protein 5:1); refinement with C2 symmetry; no conformational change between the three

Protein | Km [1] [µM] | kcat [1] [s⁻¹] | stoichiometry N [2]
human SIDT2 (SID1 transmembrane family member 2) (Homo sapiens) (protein, full-length (832 residues, with signal peptide), C-terminal FLAG and His8 tags, expressed in HEK293F, purified in GDN; homodimer) HLGVLGPKNVSQKDAEFERTYVDEVNSELVNIYTFNHTVTRNRTEGVRVSVNVLNKQKGAPLLFVVRQKEAVVSFQVPLILRGMFQRKYLYQKVERTLCQPPTKNESEIQFFYVDVSTLSPVNTTYQLRVSRMDDFVLRTGEQFSFNTTAAQPQYFKYEFPEGVDSVIVKVTSNKAFPCSVISIQDVLCPVYDLDNNVAFIGMYQTMTKKAAITVQRKDFPSNSFYVVVVVKTEDQACGGSLPFYPFAEDEPVDQGHRQKTLSVLVSQAVTSEAYVSGMLFCLGIFLSFYLLTVLLACWENWRQKKKTLLVAIDRACPESGHPRVLADSFPGSSPYEGYNYGSFENVSGSTDGLVDSAGTGDLSYGYQGRSFEPVGTRPRVDSMSSVEEDDYDTLTDIDSDKNVIRTKQYLYVADLARKDKRVLRKKYQIYFWNIATIAVFYALPVVQLVITYQTVVNVTGNQDICYYNFLCAHPLGNLSAFNNILSNLGYILLGLLFLLIILQREINHNRALLRNDLCALECGIPKHFGLFYAMGTALMMEGLLSACYHVCPNYTNFQFDTSFMYMIAGLCMLKLYQKRHPDINASAYSAYACLAIVIFFSVLGVVFGKGNTAFWIVFSIIHIIATLLLSTQLYYMGRWKLDSGIFRRILHVLYTDCIRQCSGPLYVDRMVLLVMGNVINWSLAAYGLIMRPNDFASYLLAIGICNLLLYFAFYIIMKLRSGERIKLIPLLCIVCTSVVWGFALFFFFQGLSTWQKTPAESREHNRDCILLDFFDDHDIWHFLSSIAMFGSFLVLLTLDDDLDTVQRDKIYVF | 9.0 | 0.00012 | 
human SID1 transmembrane family member 2 (SIDT2), full-length (natural protein, UniProt Q8NBJ9 19-832, looked up, N-linked glycans resolved at N27, N54, N60, N123, N141 and N165, SIDT2, human, full-length cDNA; 832-amino acid protein with a signal peptide, BRD1 (23-152), BRD2 (157-287), CTD between TM1 and TM2, and eleven TMs; Expressed from the full-length cDNA with its own signal peptide; also called apoSIDT2-pH 7.4; apoSIDT2-pH 5.5) HLGVLGPKNVSQKDAEFERTYVDEVNSELVNIYTFNHTVTRNRTEGVRVSVNVLNKQKGAPLLFVVRQKEAVVSFQVPLILRGMFQRKYLYQKVERTLCQPPTKNESEIQFFYVDVSTLSPVNTTYQLRVSRMDDFVLRTGEQFSFNTTAAQPQYFKYEFPEGVDSVIVKVTSNKAFPCSVISIQDVLCPVYDLDNNVAFIGMYQTMTKKAAITVQRKDFPSNSFYVVVVVKTEDQACGGSLPFYPFAEDEPVDQGHRQKTLSVLVSQAVTSEAYVSGMLFCLGIFLSFYLLTVLLACWENWRQKKKTLLVAIDRACPESGHPRVLADSFPGSSPYEGYNYGSFENVSGSTDGLVDSAGTGDLSYGYQGRSFEPVGTRPRVDSMSSVEEDDYDTLTDIDSDKNVIRTKQYLYVADLARKDKRVLRKKYQIYFWNIATIAVFYALPVVQLVITYQTVVNVTGNQDICYYNFLCAHPLGNLSAFNNILSNLGYILLGLLFLLIILQREINHNRALLRNDLCALECGIPKHFGLFYAMGTALMMEGLLSACYHVCPNYTNFQFDTSFMYMIAGLCMLKLYQKRHPDINASAYSAYACLAIVIFFSVLGVVFGKGNTAFWIVFSIIHIIATLLLSTQLYYMGRWKLDSGIFRRILHVLYTDCIRQCSGPLYVDRMVLLVMGNVINWSLAAYGLIMRPNDFASYLLAIGICNLLLYFAFYIIMKLRSGERIKLIPLLCIVCTSVVWGFALFFFFQGLSTWQKTPAESREHNRDCILLDFFDDHDIWHFLSSIAMFGSFLVLLTLDDDLDTVQRDKIYVF |  |  | 2
